Paper PMC6363177, “R pyocin tail fiber structure reveals a receptor-binding domain with a lectin fold” (PLoS ONE, 2019)

Columns and labels:
[1] = target: the molecule itself; test: SEC; analytical Sepharose-200 10/300 column, elution volumes compared with SEC standards (Biorad); samples diluted to 1 mg/mL in 50mM Tris pH 8.0, 150mM NaCl, 5% glycerol
[2] = target: the molecule itself; test: crystal structure; vapor diffusion crystals at 16°C; trimer formed by crystallographic symmetry, also checked with PISA

| Protein | stoichiometry N [1] | stoichiometry N [2] |
| --- | --- | --- |
| R2-subtype N-terminally truncated tail fiber fragment (R2-NTF) (domain or fragment, R2-subtype pyocin tail fiber PA0620 of Pseudomonas aeruginosa PAO1, residues Y419-R691; numbering relative to native PA0620; Cloned into pMCSG11 (LIC); 32.2 kDa printed; Removal of the tag before crystallisation is not mentioned; also called R2-subtype pyocin tail fiber distal region; PA0620 Y419-R691; source: E. coli BL21 (DE3), co-expressed with chaperone PA0621; in lysate for the Ni-IMAC …) YVRVSYAANPSIREWLPWQRCDIGGSFTKEADGELPGGVNLDSMVTSGWWSQSFTAQAASGANYPIVRAGLLHVYAASSNFIYQTYQAYDGESFYFRCRHSNTWFPWRRMWHGGDFNPSDYLLKSGFYWNALPGKPATFPPSAHNHDVGQLTSGILPLARGGVGSNTAAGARSTIGAGVPATASLGASGWWRDNDTGLIRQWGQVTCPADADASITFPIPFPTLCLGGYANQTSAFHPGTDASTGFRGATTTTAVIRNGYFAQAVLSWEAFGR | 3 |  |
| Selenomethionine-labelled R2-NTF (domain or fragment, selenomethionine in place of methionine, R2-subtype pyocin tail fiber PA0620 of Pseudomonas aeruginosa PAO1, residues Y419-R691 (plasmid pMCSG11/R2-NTF, as m1); numbering relative to native PA0620; Same construct as m1, made in another host and labelled with selenomethionine for Se-SAD phasing; also called Sel-met R2-NTF; selenomethionine replaced R2-NTF; source: E. coli B834 (DE3) methionine auxotroph, co-expressed with PA0621 in M9 …) YVRVSYAANPSIREWLPWQRCDIGGSFTKEADGELPGGVNLDSMVTSGWWSQSFTAQAASGANYPIVRAGLLHVYAASSNFIYQTYQAYDGESFYFRCRHSNTWFPWRRMWHGGDFNPSDYLLKSGFYWNALPGKPATFPPSAHNHDVGQLTSGILPLARGGVGSNTAAGARSTIGAGVPATASLGASGWWRDNDTGLIRQWGQVTCPADADASITFPIPFPTLCLGGYANQTSAFHPGTDASTGFRGATTTTAVIRNGYFAQAVLSWEAFGR |  | 3 |
